The values that follow come from paper PMC11624207, “Human PC4 supports telomere stability and viability in cells utilizing the alternative lengthening of telomeres mechanism”.

The target of this data set is PC4wt (His-tagged) (human, UniProt P53999 1-127). As to the kind of experiment: EMSA; EMSA: 50 mM HEPES pH 8, 1 mM DTT, 100 mM NaCl, 0.01% BSA, 2% glycerol; 20 min on ice then 10 min at 25 C; native 8% PAGE, 0.5x TBE, 4 C. The note with it: protein: recombinant, tags: N-terminal 6xHis, chain copies: 2, label: 5'-32P, single strand.

Consider TTACGGTTACGGTTACGGTTACGGTTACGG (ssDNA) [mutant telomeric G-rich (TTACGG)5], for which, for the setting “unable to form G4”, the binding result is listed as “binds”.
With CCCTAACCCTAACCCTAACCCTAACCCTAA (ssDNA) [telomeric C-rich (CCCTAA)5], the binding result was “binds”.
On to TTAGGGTTAGGGTTAGGGTTAGGGTTAGGG (ssDNA) [telomeric G-rich (TTAGGG)5], for which the binding result (G4-capable) is reported as “binds”.
GGACTCTAGCGTGGATCCTTAAGCTAGAAT (ssDNA) [unrelated oligonucleotide]: the binding result was “binds”.
